Measured values: paper doi:10.1101/2022.05.05.490787
Several values for one entry are separate records, joined by “and”; a condition that tells them apart may be missing. Identical values can stand only once.

Legend:
[1] = target: HA-Cdt1 phosphomimetic (2E3D) (human) (UniProt Q9H211); experiment: co-IP
[2] = target: GFP-Cdt1^2E3D (human) (UniProt Q9H211); experiment: BLI
[3] = target: GFP-tagged Cdt1 deletion fragment 92-410 (human) (UniProt Q9H211); experiment: BLI
[4] = target: GFP-tagged Cdt1 (92-546 a. a.) (human) (UniProt Q9H211); experiment: BLI
[5] = target: GFP-tagged Cdt1 deletion fragment 410-546 (human) (UniProt Q9H211); experiment: BLI

Substance | % reduction of co-precipitated Ska1 against Cdt1-WT [1] | Kd [2] | Kd [3] | Kd [4] | Kd [5]
SKA1 (endogenous) (from UniProt Q96BD8 1-255) (natural protein) | 50% and 55% |  |  |  | 
Ska1 complex (analyte of the BLI experiments) (from UniProt Q96BD8;Q8WVK7) |  | 185 nM | 220 nM | 70 nM | 360 nM
